Assay [1] addresses chicken sodium hydrogen exchanger isoform 1 (chNHE1), expressed on 293T cells (pCAF-chNHE1) (chicken). Briefly: flow cytometry on cells; virus-cell binding: 293T cells transfected with pCAF-chNHE1 incubated with 50 MOI rescued virus 1 h on ice; stained with 4A3 anti-gp85 and FITC secondary, anti-FLAG co-staining.
For assay [2] the target is unchanged. Briefly: virus-cell binding assay read by RT-qPCR; 293T cells transfected with pCAF-chNHE1, exposed to rescued virus at MOI 50 for 1 h at 4 °C, washed five times; gp85 gene RT-qPCR against human GAPDH. On the technique in general: Quantitative PCR measures a nucleic acid by following its amplification.
For assay [3], the target named is soluble chECL1 protein (chicken). Briefly: SPR; Biacore 8K; chECL1 immobilised on a CM5 chip to about 100 RU; serial dilutions of gp85 flowed; 10 mM HEPES pH 7.2, 150 mM NaCl, 0.05% Tween-20; 1:1 binding model. (SPR reads the build-up and loss of mass on a sensor chip optically.)
Assay [4] has as its target chicken sodium hydrogen exchanger isoform 1 (chNHE1), expressed on 293T cells (pCAF-chNHE1) (chicken). Briefly: flow cytometry on cells. For orientation: In flow cytometry, cells or beads pass a laser one at a time.
In assay [5] the target is chECL1, first extracellular loop of chNHE1, with a C-terminal HA tag (chicken). The experiment in a line: co-IP.
Assay [6] has as its target chicken sodium hydrogen exchanger isoform 1 (chNHE1), expressed on 293T cells (pCAF-chNHE1) (chicken). The experiment in a line: flow cytometry on cells; protein-cell binding assay: purified gp85-Fc (0.5 mL of 200 ng/uL; 300, 200 and 50 ng/uL in Fig 2A) incubated 1 h on ice with 293T cells transfected with pCAF-chNHE1; anti-human IgG (Fc specific)-FITC, anti-FLAG co-staining.

Assay [7] addresses soluble chECL1 protein (chicken). The experiment in a line: SPR; Biacore 8K; chECL1 immobilised on a CM5 chip to about 100 RU; serial dilutions of gp85 flowed; 10 mM HEPES pH 7.2, 150 mM NaCl, 0.05% Tween-20; 1:1 binding model. This is another data set of the same source.
The target of assay [8] is chECL1, first extracellular loop of chNHE1, with a C-terminal HA tag (chicken). The experiment in a line: co-IP; 293T cells co-transfected with chECL1 (HA) and pCAF-gp85 plasmids for 48 h; lysates on anti-HA-agarose; blot with 4A3 and anti-HA; gp85 intensities normalised to input.

Read-outs that look alike come from different tables or passages of the source.

A word on the Kd: it is a measure of binding affinity in units of concentration. A low value points to a tighter complex.

As to “Env of the recombinant virus rHPRS103-N123I (N123I in gp85), on virions (complex)”, the fold binding capacity against rHPRS103 (FACS) in assay [1] was found to be 1.27 fold. The fold binding capacity against rHPRS103 (RT-qPCR) in assay [2] was determined as 7.14 fold.

In assay [1], “Env of the recombinant virus rHPRS/JL3-1 (gp85 of JL08CH3-1 on the HPRS103 backbone), on virions (complex)” came in with a fold binding capacity against rHPRS103 (FACS) of 1.29 fold. The fold binding capacity against rHPRS103 (RT-qPCR) in assay [2] was 7.96 fold.

As to “JL08CH3-1-gp85 (CAG-JL3-1-gp85-Fc) (Fc fusion)”, the Kd in assay [3] is 109 nM. Moreover, in assay [4], the binding rate at 50 ng/μL turned out to be 58.5%, the binding rate at 200 ng/μL stood at 85% and the binding rate at 300 ng/μL was found to be 87.9%.

Take “JL08CH3-1-gp85 (pCAF-JL3-1-gp85) (natural protein)”: the fold binding capacity against HPRS103-gp85 in assay [5] is 1.3 fold.

On to “N123I-gp85 (CAG-N123I-gp85-Fc) (Fc fusion)”, for which the fold binding capacity against HPRS103-gp85 in assay [6] is 1.3 times. In assay [7], this substance came in with a Kd of 135 nM.

The substance “N123I-gp85 (pCAF-N123I-gp85) (natural protein)” came in with a fold binding against HPRS103-gp85 in assay [8] of 1.6 fold.

In turn, “N123I/V128F mutant gp85 (on CAG-sgp85-Fc backbone) (Fc fusion)” came in with a fold binding capacity against HPRS103-gp85 in assay [6] of 1.3 times.

In turn, “soluble HPRS103-gp85 (CAG-sgp85-Fc) (Fc fusion)” showed a Kd in assay [3] of 584 nM. Further, in assay [4], the binding rate at 50 ng/μL is 9.7%, the binding rate at 200 ng/μL came to 59.2% and the binding rate at 300 ng/μL turned out to be 70%. In addition, the Kd in assay [7] was 547 nM.

For the origin of these results see paper PMC10878525.
